Square brackets hold non-standard residues; d marks the D form. Ends that are not written are not given here. * marks the point of attachment. Trt = c1ccc(C(c2ccccc2)(c2ccccc2)*)cc1; Octanoyl = CCCCCCCC(=O)*; Octyl = CCCCCCCC* A value given as a limit tells only on which side of the number the result lay.

Holding throughout (test): cell-based or functional assay
Experiment [1] concerns the target rat GHS-R (GHS receptor) expressed on CHO-GHSR62 cells (rat) (UniProt O08725).
Experiment [2] has as its target T1, rat GHS-R (GHS receptor) expressed on CHO-GHSR62 cells (rat, UniProt O08725 1-364).
The target of experiment [3] is T1, rat GHS-R (GHS receptor) expressed on …. This is another data set of the same source.

Chain of rat GHS-R (GHS receptor) expressed on CHO-GHSR62 cells (rat) (O08725 whole entry): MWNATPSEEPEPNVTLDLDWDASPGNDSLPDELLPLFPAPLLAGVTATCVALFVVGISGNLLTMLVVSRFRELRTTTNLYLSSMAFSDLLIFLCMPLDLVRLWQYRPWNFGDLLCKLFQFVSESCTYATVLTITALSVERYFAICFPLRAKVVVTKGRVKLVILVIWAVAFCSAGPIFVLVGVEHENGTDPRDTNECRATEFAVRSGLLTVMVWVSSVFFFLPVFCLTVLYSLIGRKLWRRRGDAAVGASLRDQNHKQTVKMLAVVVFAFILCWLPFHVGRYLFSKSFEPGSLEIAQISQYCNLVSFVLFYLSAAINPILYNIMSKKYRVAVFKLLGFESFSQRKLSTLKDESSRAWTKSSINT
T1 sequence (O08725 whole entry): as above

B1: [N-Glycyl]-Ghrelin (3-7)-amide (peptide)
peptide: GS(Octanoyl)FLSP-NH2
modifications: N-terminus assumed
SMILES: CCCCCCCC(=O)OC[C@H](NC(=O)CN)C(=O)N[C@@H](Cc1ccccc1)C(=O)N[C@@H](CC(C)C)C(=O)N[C@@H](CO)C(=O)N1CCC[C@H]1C(N)=O
The molecule B1 registered a Ca-releasing activity EC50 in experiment [1] of 380 nM.
With GSS(Octanoyl)FLSPEHQ [Ghrelin (1-10)], the “Ca-releasing activity (EC50, nM)” value in experiment [2] was 19 nM. The “Ca-releasing activity EC50” value in experiment [3] stood at 19 nM.
For GSXFLSPEHQRVQQRKESKKPPAKLQPR (position 3 (X) is 2-D-naphthylalanine (D-Nal)) [[2-^DNal^3]-hGhrelin], in experiment [1], the Activity EC50 is > 10000 nM.
On the same count and under the same terms, for GST(Octanoyl)FLSPEHQRVQQRKESKKPPAKLQPR [[Thr^3(Octanoyl)]-hGhrelin] the value was 10 nM.

B2: Ghrelin (1-5)-amide (peptide)
peptide: GSS(Octanoyl)FL-NH2
modifications: N-terminus assumed
SMILES: CCCCCCCC(=O)OC[C@H](NC(=O)[C@H](CO)NC(=O)CN)C(=O)N[C@@H](Cc1ccccc1)C(=O)N[C@@H](CC(C)C)C(N)=O
Consider B2, for which, in experiment [3], the “Ca-releasing activity EC50” value was found to be 6.2 nM.
With Gly-Ser-Ser(Octanoyl)-NH2 (N-terminus assumed; SMILES CCCCCCCC(=O)OC[C@H](NC(=O)[C@H](CO)NC(=O)CN)C(N)=O) [Ghrelin (1-3)-amide], the “Ca-releasing activity EC50” value in experiment [3] was > 10000 nM.
In experiment [1], GSXFLSPEHQRVQQRKESKKPPAKLQPR (position 3 (X) is 2-aminododecanoic acid (Adod; side chain n-C10H21)) [[Adod^3]-hGhrelin] returned an Activity EC50 of 0.91 nM.

B3: [Cys^3(Octyl),^DPhe^4]-Ghrelin (1-7)-amide (peptide)
peptide: GSC(Octyl)[dF]LSP-NH2
modifications: N-terminus assumed
SMILES: CCCCCCCCSC[C@H](NC(=O)[C@H](CO)NC(=O)CN)C(=O)N[C@H](Cc1ccccc1)C(=O)N[C@@H](CC(C)C)C(=O)N[C@@H](CO)C(=O)N1CCC[C@H]1C(N)=O
In the case of B3, the Ca-releasing activity EC50 in experiment [1] came out at 3000 nM.
As for GSS(Octanoyl)FLSPEHQR [hGhrelin (1-11)], the “Ca-releasing activity (EC50, nM)” value in experiment [2] was 15 nM. Further, the “Ca-releasing activity EC50” value in experiment [3] was determined as 15 nM.

B4: [Gly^2]-Ghrelin (1-7)-amide (peptide)
peptide: GGS(Octanoyl)FLSP-NH2
modifications: N-terminus assumed
SMILES: CCCCCCCC(=O)OC[C@H](NC(=O)CNC(=O)CN)C(=O)N[C@@H](Cc1ccccc1)C(=O)N[C@@H](CC(C)C)C(=O)N[C@@H](CO)C(=O)N1CCC[C@H]1C(N)=O
In experiment [1], B4 had a Ca-releasing activity EC50 of 78 nM.
In the case of GSC(Trt)FLSPEHQRVQQRKESKKPPAKLQPR [[Cys^3(Trityl)]-hGhrelin], the Activity EC50 in experiment [1] amounted to 20 nM.
Turning to GSS(Octanoyl)FLSPEH [Ghrelin (1-9)], the “Ca-releasing activity (EC50, nM)” value in experiment [2] turned out to be 38 nM. The “Ca-releasing activity EC50” value in experiment [3] was 38 nM.
GSS(Octanoyl)FL [Ghrelin (1-5)]: the “Ca-releasing activity EC50” value in experiment [3] came to 68 nM.
In the case of GSS(Octanoyl)FLSPE [Ghrelin (1-8)], the “Ca-releasing activity (EC50, nM)” value in experiment [2] worked out at 100 nM. Further, the “Ca-releasing activity EC50” value in experiment [3] is 100 nM.
On to GSDFLSPEHQRVQQRKESKKPPAKLQPR (Asp 3 side-chain heptyl ester (O-C7H15)) [[Asp^3(O-Heptyl)]-hGhrelin], for which, in experiment [1], the Activity EC50 turned out to be 5.1 nM.
In experiment [1], GSC(S‑heptyl)FLSPEHQRVQQRKESKKPPAKLQPR [[Cys^3(S-Heptyl)]-hGhrelin] displayed an Activity EC50 of 1.4 nM.

B5: Ghrelin (1-4)-amide (peptide)
peptide: GSS(Octanoyl)F-NH2
modifications: N-terminus assumed
SMILES: CCCCCCCC(=O)OC[C@H](NC(=O)[C@H](CO)NC(=O)CN)C(=O)N[C@@H](Cc1ccccc1)C(N)=O
As to B5, the “Ca-releasing activity EC50” value in experiment [3] was determined as 160 nM.

B6: Ghrelin (1-6)-amide (peptide)
peptide: GSS(Octanoyl)FLS-NH2
modifications: N-terminus assumed
SMILES: CCCCCCCC(=O)OC[C@H](NC(=O)[C@H](CO)NC(=O)CN)C(=O)N[C@@H](Cc1ccccc1)C(=O)N[C@@H](CC(C)C)C(=O)N[C@@H](CO)C(N)=O
As for B6, the “Ca-releasing activity EC50” value in experiment [3] is 4.8 nM.

B7: [His^2]-Ghrelin (1-7)-amide (peptide)
peptide: GHS(Octanoyl)FLSP-NH2
modifications: N-terminus assumed
SMILES: CCCCCCCC(=O)OC[C@H](NC(=O)[C@H](Cc1c[nH]cn1)NC(=O)CN)C(=O)N[C@@H](Cc1ccccc1)C(=O)N[C@@H](CC(C)C)C(=O)N[C@@H](CO)C(=O)N1CCC[C@H]1C(N)=O
Consider B7, for which the Ca-releasing activity EC50 in experiment [1] is 35 nM.
As to GSS(Octanoyl)FLSPEHQK [rGhrelin (1-11)], in experiment [2], the “Ca-releasing activity (EC50, nM)” value turned out to be 15 nM. For the same molecule, the “Ca-releasing activity EC50” value in experiment [3] came to 15 nM.

B8: [Cys^3(Octyl)]-Ghrelin (1-7)-amide (peptide)
peptide: GSC(Octyl)FLSP-NH2
modifications: N-terminus assumed
SMILES: CCCCCCCCSC[C@H](NC(=O)[C@H](CO)NC(=O)CN)C(=O)N[C@@H](Cc1ccccc1)C(=O)N[C@@H](CC(C)C)C(=O)N[C@@H](CO)C(=O)N1CCC[C@H]1C(N)=O
B8 displayed a Ca-releasing activity EC50 in experiment [1] of 7.4 nM.

B9: Ghrelin (1-8)-amide (peptide)
peptide: GSS(Octanoyl)FLSPE-NH2
modifications: N-terminus assumed
SMILES: CCCCCCCC(=O)OC[C@H](NC(=O)[C@H](CO)NC(=O)CN)C(=O)N[C@@H](Cc1ccccc1)C(=O)N[C@@H](CC(C)C)C(=O)N[C@@H](CO)C(=O)N1CCC[C@H]1C(=O)N[C@@H](CCC(=O)O)C(N)=O
As for B9, the “Ca-releasing activity EC50” value in experiment [3] is 13 nM.
GSDFLSPEHQRVQQRKESKKPPAKLQPR (Asp 3 side-chain heptylamide (NH-C7H15)) [[Asp^3(NH-Heptyl)]-hGhrelin] registered an Activity EC50 in experiment [1] of 11 nM.

B10: [Lys^2]-Ghrelin (1-7)-amide (peptide)
peptide: GKS(Octanoyl)FLSP-NH2
modifications: N-terminus assumed
SMILES: CCCCCCCC(=O)OC[C@H](NC(=O)[C@H](CCCCN)NC(=O)CN)C(=O)N[C@@H](Cc1ccccc1)C(=O)N[C@@H](CC(C)C)C(=O)N[C@@H](CO)C(=O)N1CCC[C@H]1C(N)=O
B10 came in with a Ca-releasing activity EC50 in experiment [1] of 24 nM.
The molecule GSXFLSPEHQRVQQRKESKKPPAKLQPR (position 3 (X) is cyclohexylalanine (Cha)) [[Cha^3]-hGhrelin] showed an Activity EC50 in experiment [1] of 19 nM.

B11: [Dap^3(Octanoyl)]-hGhrelin (peptide)
peptide: GSXFLSPEHQRVQQRKESKKPPAKLQPR
modifications: position 3 (X) is L-2,3-diaminopropionic acid (Dap) with N-octanoyl side chain (CH2NHCO-C7H15)
In experiment [1], B11 showed an Activity EC50 of 2.6 nM.

B12: Ghrelin (1-7)-amide (peptide)
peptide: GSS(Octanoyl)FLSP-NH2
modifications: N-terminus assumed
SMILES: CCCCCCCC(=O)OC[C@H](NC(=O)[C@H](CO)NC(=O)CN)C(=O)N[C@@H](Cc1ccccc1)C(=O)N[C@@H](CC(C)C)C(=O)N[C@@H](CO)C(=O)N1CCC[C@H]1C(N)=O
With B12, the “Ca-releasing activity EC50” value in experiment [3] was determined as 2.6 nM.

For the origin of these results see patent US20090170763A1 (KENJI KANGAWA, published 2009).
